Source: patent publication US20240254227A1 (Alector, published 2024)
Residue numbers refer to the chain shown, from its start.

T1: recombinant murine CD300LB overexpressed on BaF/3 cells (mouse, UniProt Q3U497 18-209)
T1 construct: Cells carry pMXs-Myc-tagged muCD300LB together with FLAG-tagged DAP12; also called muCD300LB; BaF/3 overexpressing muCD300LB
T1 sequence: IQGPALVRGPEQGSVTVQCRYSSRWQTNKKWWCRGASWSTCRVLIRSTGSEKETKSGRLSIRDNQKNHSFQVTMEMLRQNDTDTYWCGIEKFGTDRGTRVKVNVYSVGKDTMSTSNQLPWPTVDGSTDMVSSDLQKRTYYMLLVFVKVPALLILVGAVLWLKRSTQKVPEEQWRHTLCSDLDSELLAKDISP

T2: huCD300F constitutively expressed on 293 Freestyle (Freestyle HEK) cells (human, UniProt Q8TDQ1 20-290)
T2 construct: also called huCD300LF; Human CD300F
T2 sequence: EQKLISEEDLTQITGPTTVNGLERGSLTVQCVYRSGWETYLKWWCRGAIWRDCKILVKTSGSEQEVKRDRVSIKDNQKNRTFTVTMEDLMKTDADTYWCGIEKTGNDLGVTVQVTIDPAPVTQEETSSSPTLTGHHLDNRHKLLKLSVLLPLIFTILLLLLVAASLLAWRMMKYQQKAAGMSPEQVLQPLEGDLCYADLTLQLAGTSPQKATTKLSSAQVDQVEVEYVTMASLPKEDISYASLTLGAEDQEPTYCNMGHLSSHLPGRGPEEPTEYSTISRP

T3: human CD300LB transiently expressed on HEK293 cells (human, UniProt A8K4G0 18-201)
T3 construct: CD300LB expression constructs'; also called huCD300LB HEK293
T3 sequence: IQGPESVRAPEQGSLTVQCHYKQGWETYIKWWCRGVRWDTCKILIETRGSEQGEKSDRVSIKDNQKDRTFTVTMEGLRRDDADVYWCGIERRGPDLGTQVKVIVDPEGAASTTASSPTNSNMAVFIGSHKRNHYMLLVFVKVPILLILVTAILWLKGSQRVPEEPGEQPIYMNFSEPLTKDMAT

B1: anti-CD300LB antibody CD-14 (antibody, V domains shown)
VH: QIQLVQSGPELKKPGETVKISCKASGYTFTDYSLHWVKQTPEKNLKWMAWINTETGAPTYADDFKGRFAFSLETSSNTAYLLINNLKNEDTATYFCALTMVNYWGQGTTLTVSS
VL: DIVMTQSQKFMSTSVGDRVSVTCKASQNVGIRVAWHQQKPGQSPKTLIYSTSYRYSGVPDRFTGSGSGTEFILTISNVQSEDLAEYFCQQYNSYPYTFGGGTKLEIK
B2: anti-CD300LB antibody CD-10 (antibody, V domains shown)
VH: QVQLQQSGPELVRPGVSVKISCKGSGYTFTDYAMHWVKQSHVRSREWIGVIGTYNGHTNYNQKFKGKATMTVDKSSSTAYLELARLTSEDSAIYYCARSGSYYYSMDYWGQGTSVTVSS
VL: QIVLTQSPAIMSASPGEKVTMTCSASSSVNYMHWYQQKSGTSPKRWIYDTSKLSSGVPARFSGSGSGTSYSLTISTMEAEDAATYYCQQWSSNPPMTFGGGTKLEIK
B3: anti-CD300LB antibody CD-11 (antibody, V domains shown)
VH: QIQLVQSGPEVKKPGETVKISCKASGYTLTDYSMHWVMQTPGTGLKWMAWMNTETGEPTYADDFKGRFAFSLETSAGTAYLQIDNLKNEDTATYFCATYGKSYGMKYWGQGTSVTVSS
VL: DIVLTQSPPSLAVSLGQRATISCRATKSVSPYLHWYQQTPGQPPKLLIYLASNLDSGVPARFSGSGSGTDFTLNIHPVEEEDAATYYCQHNKELPPTFGGGTRLEIK
B4: anti-CD300LB antibody CD-12 (antibody, V domains shown)
VH: QIQLVQSGPELKKPGETVKISCKASGYTFTDYSMHWVRQAPGKGLKWMAWINTETGEATHADDFKGRFDFSLDTSASTAYLQIKNLKNEDTGIYFCVCYGSSYGMDYWGQGTSVTVSS
VL: DIVLTQSPASLPVSLGQRATISCRASKSVRTSGASYMHWYQQKPGQPPKLLIYLASNLKSGVPTRFSGSGSGTDFTLNIHPVEEEDAATYYCQHNREVPPTFGGGTKLEIK
B5: anti-CD300LB antibody CD-15 (antibody, V domains shown)
VH: QIQLVQSGPELKKPGETVKISCQVSGYTFTDYSMHWLKQAPGKGLKWMAWINTETGESTYTDEFKGRFVFSLETSVRTAYLKINNLKNEDTATYFCGTYGSSYGMAYWGQGTSVTVSS
VL: B4 VL with R30S, A34S, M37L, N57K, K59E, T64A, S67R
B6: anti-CD300LB antibody CD-16 (antibody, V domains shown)
VH: QIQLVQSGPELKKPGETVKISCKASGYTFTDYSMHWVKQAPGKGLKWMAWINTETGEPTYADDFRGRFAFSLETSGRTAYLEINNLRNEDTATYFCVTYGSSYGMAYWGQGTSVTVSS
VL: B4 VL with P12A, R30S, T31R, A34Y, M37L, N57K, K59E, T64A, E84A, V98I
B7: anti-CD300LB antibody CD-13 (antibody, V domains shown)
VH: QIQLVQSGPELKKPGETVKISCKASGYTFTDYSMHWVKQAPGKGFKWMAWINTETGAPTHADDFRGRFAFSLETSASTAFLQISNLKTEDTATYFCVTFGKSYGMNYWGQGTSVTVSS
VL: B4 VL with P12S, R30G, T31S, A34S, M37L, K59E, T64A, D74E, R96A
B8: anti-CD300LB antibody CD-01 (antibody, V domains shown)
VH: RVQLQQSGAELVRPGASVTLSCKASGFTFTDFEMHWVKKTPVHGLEWIGAIDPESGNTAYNQKFRGKATLTADKSSSTAYMELRYLTSEDSAVYYCTPLISGADYWGQGTTLTVSS
VL: DVVMTQSPLSLPVSLGDQASISCRSSQSLVHSDGNTYLYWYLQKPGQSPKLLIYKVSNRFSGVPDRFSGSGSGTDFTFKISRVGAEDLGVYFCSQSTHVPWTFGGGTKLEII
B9: anti-CD300LB antibody CD-02 (antibody, V domains shown)
VH: QVQLQQPGAELVRPGSSVKLSCQASGYTFTNYWMHWVRQRPIQGLEWIGNIDPSDSETHYNQKFKDRATLTVDKSSSTAYMQLSSLTSEDSAVYYCARSGVYDDEGGDYWGQGTTLTVSS
VL: ENVLTQSPAIMSASPGEKVTMTCSASSSVSYIHWYQQKSSTSPKLWIYDTSKLASGVPGRFSGSGSGNSYSLTISSMETEDVATYYCFQGSGYPLTFGAGTKLELK
B10: anti-CD300LB antibody CD-03 (antibody, V domains shown)
VH: EVQLQQSGPELVKPGASVKISCKASGYTFTDYYINWVRQSHGKSLECIGDINPNNGGTNYNQKFKGKATLTVDRSSNTAYMEFRSLTFDDSALYYCAAEGAYWGQGTLVTVSA
VL: not shown
B11: anti-CD300LB antibody CD-07 (antibody, V domains shown)
VH: QVQLVQSGAEVKKPGASVKVSCKASGYTFTNYRMHWVRQAPGQGLEWMGWINPNSGGTIYAQKFQGRVTMTRDTSTSTVYMELSSLRSEDTAVYYCARDLDYWGQGTLVTVSS
VL: DIQMTQSPSSLSASVGDRVTITCQASQDISNYLNWYQQKPGKAPKLLIYGASSLQSGVPSRFSGSGSGTDFTLTISSLQPEDFATYYCQQSYSTPWTFGPGTKVEIK
B12: anti-CD300LB antibody CD-05 (antibody, V domains shown)
VH: QVQLVQSGAEVKKPGASVKVSCKASGYTFSRYYINWVRQAPGQGLEWMGWINPNSGGTNYAQKFQGRVTMTRDTSTSTVYMELSSLRSEDTAVYYCTTDQLRFGKTGPYYGMDVWGQGTTVTVSS
VL: B11 VL with Q24R, D28N, S30G, N31T, G50A, T94D, P95T, W96L, P100G
B13: anti-CD300LB antibody CD-06 (antibody, V domains shown)
VH: QVQLVQSGAEVKKPGASVKVSCKASGYTFTTYAVHWVRQAPGQGLEWMGIVNPNSGGTNYAQKFQGRVTMTRDTSTSTVYMELSSLRSEDTAVYYCARDIVPMNNFYNYYYGMDVWGQGTTVTVSS
VL: B11 VL with Q24R, D28S, N31S, G50A, A51T, S53T, S93R, T94I, W96Y, P100Q

Molecular target: T1, recombinant murine CD300LB …
Assay: flow cytometry, BaF/3 cells overexpressing muCD300LB
Protocol: Purified anti-CD300LB antibodies of the present disclosure were evaluated for their binding affinity to either Jurkat cells overexpressing recombinant huCD300LB or BaF/3 cells overexpressing recombinant muCD300LB. Binding of anti-CD300LB antibodies to the cells was determined as follows. Cells were harvested, washed, and labeled with propidium iodide for viability discrimination. After washing the cells with PBS, 1×10⁵ cells were aliquoted per well in 96-well U-bottom plates and incubated with 100 μL of purified anti-CD300LB antibody at various concentrations in FACS buffer (PBS+2% FBS). After this primary incubation, the supernatant was removed via centrifugation, the cells washed twice with 150 μL of ice-cold FACS buffer, and then incubated with the appropriate secondary antibody on ice for 30 minutes. Following the secondary antibody incubation, the cells were again washed twice with ice-cold FACS buffer and resuspended in a final volume of 200 L FACS buffer. Flow cytometry analysis was then performed using the FACSCanto system (BD Biosciences).

| gMFI [gMFI] | Binder |
| --- | --- |
| 19400 | B1 |
| 6260 | B2 |
| 10900 | B3 |
| 9800 | B4 |
| 8330 | B5 |
| 8970 | B6 |
| 22100 | B7 |

Molecular target: T2, huCD300F constitutively expressed on …
Assay: flow cytometry, stable Freestyle HEK cells
Protocol: (§1) Other members of the human CD300 family share sequence homology with human CD300LB. Thus, counter screens against binding of the anti-CD300LB antibodies to huCD300A, huCD300C, huCD300LD, huCD300E, huCD300LF, and huCD300G by stable overexpression in Freestyle HEK cells (generation of which is described above) were performed as follows. Cells were counted and labeled with 200 nM CFSE, 500 nM VioBlue, or a combination of the two to discriminate between CD300LB, Parental cells, and the other CD300 family members. Cells were washed thoroughly with PBS containing 2% fetal bovine serum then resuspended at a total of 240,000 cells per well. Hybridoma supernatants (100 L) or purified antibodies at various concentrations were added and incubated for one hour before the cells were washed twice again and stained with an APC-labeled anti-human or anti-mouse secondary antibody. Cells were then analyzed using a BD FACSCanto II. Anti-CD300LB antibodies were analyzed for specific binding to human CD300LB by FlowJo software by gating on live cells, then the APC geometric mean fluorescence intensity (gMFI) calculated for each labeled population. The results are shown in […]
(§2) Freestyle HEK cells were transfected with huCD300A, huCD300C, huCD300D, huCD300E, and huCD300G separately. Then, five stable cell lines from these transfections were pooled; the combined cells are herein known as CD300A/C/D/E/G. Freestyle HEK cells were also transfected with huCD300LB and huCD300F. All transfected cells were then tested for binding of anti-CD300LB antibodies of the present disclosure.

| gMFI [gMFI] | binding result | Binder |
| --- | --- | --- |
| -26 |  | B8 |
| -93 |  | B9 |
| 2090 | no binding | B10 |
| 112 | no binding | B11 |
| 2730 | no binding | B12 |
| 886 | no binding | B13 |

Molecular target: T4, huCD300LB-DAP12 fusion constitutively expressed on 293 Freestyle (Freestyle HEK) cells (human)
T4 construct: also called Human CD300LB-DAP12 chimera
Assay: flow cytometry, stable Freestyle HEK cells
Protocol: as §1, §2

| gMFI [gMFI] | Binder |
| --- | --- |
| 45 | B8 |
| 108 | B9 |
| 163000 | B10 |
| 31500 | B11 |
| 113000 | B12 |
| 80900 | B13 |

Molecular target: T3, human CD300LB transiently expressed on …
Assay: flow cytometry, transfected HEK293, 10 ug/mL, isotype subtracted
Protocol: In addition, supernatants or purified antibodies were tested for species crossreactivity by comparing the binding of human, mouse, and cynomolgous monkey CD300LB expressing cell lines. HEK293 were transfected with […] of human, mouse, and cyno CD300LB expression constructs using the Mirus system in 10 cm tissue culture dishes. Cells were then incubated for 24 hours in complete medium. Cells were harvested by incubation in TrypLE Express, then washed with PBS and labeled with 200 nM CFSE, 500 nM VioBlue, or a combination of the two to discriminate between human, mouse, and cyno CD300LB expressing cells. Cells were washed thoroughly with PBS containing 2% fetal bovine serum then resuspended at a total of 240,000 cells per well. Purified antibodies at 10 μg/mL were added and incubated for one hour before the cells were washed again and stained with an APC-labeled anti-human or anti-mouse secondary. Cells were then analyzed using a BD FACSCanto II. Antibodies were analyzed for specific binding to human, mouse, or cyno CD300LB by FlowJo software by gating on live cells, then the APC gMFI calculated for each labeled population minus the gMFI of the isotype control.

| gMFI [gMFI] | Binder |
| --- | --- |
| 166 | B8 |
| 578 | B9 |
| 38.7 | B10 |
| 686 | B11 |
| 933 | B12 |
| 314 | B13 |
